Test results taken from publication PMC4625125.

System: ScbR2
Assay: EMSA
Conditions: 'nearly 1 uM'; exact value in figure; not stated; modified EMSA as previously described (ref 23)

PkasO1
Kd: 1000 nM
